One data set addresses ORCA-1 (Catharanthus roseus). Put plainly: cell_activity; within Str1 BH promoter, GUS/CAT, C. roseus cells.
The target in a further data set is ORCA-2 (Catharanthus roseus). The description is as above.
Chain of ORCA-2 (Catharanthus roseus) (chain, as listed by the source): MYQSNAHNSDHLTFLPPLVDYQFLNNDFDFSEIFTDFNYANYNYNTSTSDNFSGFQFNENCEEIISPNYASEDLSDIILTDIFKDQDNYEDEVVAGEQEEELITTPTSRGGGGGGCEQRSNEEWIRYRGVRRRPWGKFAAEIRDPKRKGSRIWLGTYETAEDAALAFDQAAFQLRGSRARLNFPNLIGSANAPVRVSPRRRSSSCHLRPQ

Chain of ORCA-1 (Catharanthus roseus) (chain, as listed by the source): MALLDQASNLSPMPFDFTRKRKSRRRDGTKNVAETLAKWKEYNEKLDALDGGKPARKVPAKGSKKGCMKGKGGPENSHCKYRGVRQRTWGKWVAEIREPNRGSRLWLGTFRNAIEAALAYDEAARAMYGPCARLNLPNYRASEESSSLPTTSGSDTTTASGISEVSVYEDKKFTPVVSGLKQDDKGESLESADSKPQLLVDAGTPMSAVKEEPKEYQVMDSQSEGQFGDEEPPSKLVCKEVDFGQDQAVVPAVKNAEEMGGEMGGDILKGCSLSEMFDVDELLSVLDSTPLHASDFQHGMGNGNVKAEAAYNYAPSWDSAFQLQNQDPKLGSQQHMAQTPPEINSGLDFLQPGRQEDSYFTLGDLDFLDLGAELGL

B1: RV region of Str1 promoter (dsDNA)
DNA 1: GTACATCACTCTTAGACCGCCTTCTTTGAAAGTGATTTCCCTTGGACC
DNA 2: GGTCCAAGGGAAATCACTTTCAAAGAAGGCGGTCTAAGAGTGATGTAC
Take B1: the values for the activity with ORCA-1 and with ORCA-2 were 1.6 fold induction and 3.3 fold induction, respectively.

The values are drawn from patent publication US7393946, “Method of modulating metabolite biosynthesis in recombinant cells” (Rijksuniversiteit Leiden).
